Ends that are not written are not given here.
Legend:
[1] = target: T1, purified bovine vascular ANP receptor protein (Bos taurus, UniProt P10730); experiment: Competitive binding of 125I-ANP(4-28) against ANP peptides to purified ANP receptor protein; conditions: for relative Ki value: purified bovine receptor, competition with 125I-ANP(4-28)
T1 construct: mature receptor protein is a 496 amino acid polypeptide, expressed as a propeptide; endogenous in cells; host or cells: bovine aortic smooth muscle (BASM) cells, cultured
T1 sequence (P10730 42-537): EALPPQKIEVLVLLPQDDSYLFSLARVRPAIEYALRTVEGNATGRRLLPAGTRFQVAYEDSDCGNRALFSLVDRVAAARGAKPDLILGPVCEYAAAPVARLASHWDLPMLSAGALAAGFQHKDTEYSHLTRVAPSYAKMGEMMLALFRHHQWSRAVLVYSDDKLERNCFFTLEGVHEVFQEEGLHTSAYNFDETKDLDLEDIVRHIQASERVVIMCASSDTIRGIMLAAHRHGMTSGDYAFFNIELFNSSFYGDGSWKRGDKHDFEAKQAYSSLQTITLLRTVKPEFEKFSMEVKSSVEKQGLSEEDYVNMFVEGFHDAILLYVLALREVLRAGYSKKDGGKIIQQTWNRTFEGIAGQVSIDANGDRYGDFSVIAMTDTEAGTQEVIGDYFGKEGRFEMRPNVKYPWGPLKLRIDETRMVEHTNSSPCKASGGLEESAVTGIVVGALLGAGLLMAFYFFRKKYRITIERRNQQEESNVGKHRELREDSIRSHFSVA
Method: To characterize the purified native bovine vascular ANP receptor protein further, its activity as a receptor in vitro was studied. The following ANP peptides, described in Schenk et al. (II), supra, were employed; ANP(4-28), ANP(7-28), and ANP(5-25). Bmax, Ki and Kd were calculated by standard methods. See, e.g., Scatchard (1949) Ann. N.Y. Acad. Sci., pp. 600-672. […] This corresponds to a stoichiometry of ANP to receptor protein of 1:3/subunit, or 0.7:1/holoreceptor.
An affinity matrix was made by coupling 40 mg human ANP(4-28) to 4 ml of Affi-gel 10 (Bio-Rad) as described by the manufacturer. Solubilized ANP receptor was adjusted to 10 mM CaCl2 and MgCl2 and filtered through […] (type GE, Millipore). The filtrate was chromatographed on the ANP-agarose column at a flow rate of 0.5 ml/min at 21° C. The column was washed with binding buffer (100 mM Tris HCl, pH 7.50; 100 mM NaCl; 4 mg/ml C12 E8; 10 mM CaCl2; and 10 mM MgCl2) until the effluent reached A280 =0.000. Then 6.0 ml of elution buffer (10 mM Na acetate, pH 5.00:100 mM NaCl; 4 mg/ml C12 E8; 10 mM CaCl2; 10 mM MgCl2) was added and the eluent was placed on ice and immediately adjusted to 37% (v/v) acetone. The solution was centrifuged at 4,000×g for 10 min at 4° C. and thoroughly aspirated. The pellet was resuspended in 3.0 ml of binding buffer and analyzed for purity, receptor binding activity, and amino acid sequence.
The tested ANP peptide included hANP(4-28), hANP(7-28) and atriopeptin I. Gamma-melanocyte stimulating hormone ([…]) was employed as a negative control. […] This corresponds to a stoichiometry of ANP to receptor protein of 1:3 kd subunit, or 0.7:1.0/holoreceptor.
Additional studies were conducted with ANP peptides.

[2] = target: T2, ANP receptor (pANPRc-1/4) expressed in Xenopus oocytes (Bos taurus, UniProt P10730); experiment: ANP binding to recombinant ANP receptor (pANPRc-1/4) in solubilized membranes of mRNA-injected Xenopus oocytes; set-up: species or system bovine
T2 construct: contains a 2290 base pair DNA insert which includes the entire open reading frame; expressed in transfected cells; host or cells: Xenopus oocytes injected with synthetic RNA from pANPRc-1/4; solubilized crude membranes
T2 sequence (P10730 42-537): T1 sequence (P10730 42-537)
Method: The receptor coding sequence from pANPRc-1/4 was cloned into pGEM1 (ProMega, Madison, Wis.) and RNA prepared according to the supplier's instructions. Oocyte preparation and injection were performed essentially as described, Gurdon et al. (1983) Meth. Enzymol. 101:370-386. Typically, each oocyte was injected with 50 nl 50 ng synthetic RNA followed by incubation in modified Barth's saline at 21° C. for 48 hr. Crude membranes were prepared and solubilized in receptor binding buffer (2 mg/ml C12 E8, 100 mM NaCl, 10 mM MgCl2, 10 mM CaCl2 and 100 mM Tris:HCl; pH 7.5). Binding was measured after incubating 0.5 ml of membrane suspension containing 10 μg protein with 2×10^5 cpm of ^125 I! […] (1×10^3 cpm/fmol) and the indicated concentration of unlabeled ANP analog for 30 min at 21° C. Reactions were terminated and free peptide separated from bound by precipitation with acetone (40% v/v final). Counts bound in the absence of unlabeled ligand were 2048±374 cpm while nonspecific binding (counts bound in the presence of 20 nM rANP) were 592±89 cpm.
Only low level, nonspecific binding was detected in membranes of uninfected, or mock injected eggs. […] Both […] and the truncated analog […] for binding. The Ii apparent obtained from the experiment was 0.27 nM for both analogs.

Row | Substance | Bmax for receptor binding ([1]; computer analysis of binding data, b45 adds '75% receptor activity') [nmol/mg protein] | Kd ([1]; computer analysis of binding data, purified receptor) [nM] | relative Ki value [1] [nM] | effect on binding of radiolabeled ANP ([2]; even at 100 μM) | competition for binding ([2]; solubilized oocyte membranes)
1 | ANP(4-28): ANP peptide described in Schenk et al. (II) (RSSCFGGRMDRIGAQSGLGCNSFRY; ends and bridges not checked; cysteine pairing not given here; UniProt P01160 127-151, looked up, fragment) | 5.7 | 0.3 | 0.3 |  | 
2 | ANP(5-25): ANP peptide described in Schenk et al. (II) (SSCFGGRMDRIGAQSGLGCNS; ends and bridges not checked; cysteine pairing not given here; UniProt P01160 128-148, looked up, fragment) |  |  | 1.12 |  | 
3 | ANP(7-28): ANP peptide described in Schenk et al. (II) (CFGGRMDRIGAQSGLGCNSFRY; ends and bridges not checked; cysteine pairing not given here; UniProt P01160 130-151, looked up, fragment) |  |  | 1.1 |  | 
4 | Bombesin: bombesin, an unrelated tetradecapeptide (Peninsula Labs) |  |  |  | no effect on binding | did not compete for binding

From patent US5512455A, “Atrial natriuretic peptide receptor protein” (Scios Nova, Inc., priority 1987, dated 1996)
